Target: human fibronectin (human) (UniProt P02751)
Assay: AFM single molecule force spectroscopy

pilus-1 adhesin RrgA from Streptococcus pneumoniae (natural protein)
most probable rupture force fMP: 51.6 pN

Reference: PMC6128213
